Laboratory results from publication doi:10.1101/258194 (bioRxiv, 2018).

T1: Zip2^499-704 (XPF-like region), recombinant, co-expressed with His6-Spo16 (S. cerevisiae, UniProt P53061 499-704)
T1 sequence: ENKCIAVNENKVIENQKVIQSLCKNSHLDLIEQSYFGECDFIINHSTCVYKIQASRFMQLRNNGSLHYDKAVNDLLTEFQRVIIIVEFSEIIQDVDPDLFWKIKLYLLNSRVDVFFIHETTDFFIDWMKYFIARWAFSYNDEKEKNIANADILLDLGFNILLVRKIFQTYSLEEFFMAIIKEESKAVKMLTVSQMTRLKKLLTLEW

T2: Zip2^499-704, surface-lysine methylated (Form 1 crystals) (S. cerevisiae, UniProt P53061 499-704)
T2 sequence: T1 sequence

B1: His6-Spo16 (full-length Spo16 with TEV-cleavable N-terminal His6-tag), recombinant (natural protein)
chain: SEFFWDVQKIQEISNVEEHSVVKCVTVNTSRLISQLNEELQDEESGVNFIVTQLQLLINNVYEKIQKSPGVPAHRSLMINLNFTRLKFSIAYWDILLERSLDLINGPSKTGARYFITEVTPVDRSRYVENNQYFLAFKANQRLTRNSVDMDEFIDFEILIKQIIFDLFKKNGIPDQDFEAILSRFHNLESLVVAFNE
B2: His6-Spo16, surface-lysine methylated (Form 1 crystals) (natural protein)
chain: B1 chain
modifications: surface lysines dimethylated (positions not listed)

How the values were obtained:
[1] = molecular target: T1, Zip2^499-704 (XPF-like region), …; experiment: SEC-MALS
[2] = molecular target: T2, Zip2^499-704, surface-lysine methylated …; experiment: crystal structure

| Binder | stoichiometry N [1] | binding result [2] |
| --- | --- | --- |
| B1 | 1 | – |
| B2 | – | binds |
